Measured values: publication PMC2613632 (The Journal of Biological Chemistry, 2009)

Target: the molecule itself
Assay: native MS

B1: MacB, His-tagged, purified (natural protein, E. coli, UniProt P75831 1-648, looked up)
chain: MTPLLELKDIRRSYPAGDEQVEVLKGISLDIYAGEMVAIVGASGSGKSTLMNILGCLDKATSGTYRVAGQDVATLDADALAQLRREHFGFIFQRYHLLSHLTAEQNVEVPAVYAGLERKQRLLRAQELLQRLGLEDRTEYYPAQLSGGQQQRVSIARALMNGGQVILADEPTGALDSHSGEEVMAILHQLRDRGHTVIIVTHDPQVAAQAERVIEIRDGEIVRNPPAIEKVNVTGGTEPVVNTVSGWRQFVSGFNEALTMAWRALAANKMRTLLTMLGIIIGIASVVSIVVVGDAAKQMVLADIRSIGTNTIDVYPGKDFGDDDPQYQQALKYDDLIAIQKQPWVASATPAVSQNLRLRYNNVDVAASANGVSGDYFNVYGMTFSEGNTFNQEQLNGRAQVVVLDSNTRRQLFPHKADVVGEVILVGNMPARVIGVAEEKQSMFGSSKVLRVWLPYSTMSGRVMGQSWLNSITVRVKEGFDSAEAEQQLTRLLSLRHGKKDFFTWNMDGVLKTVEKTTRTLQLFLTLVAVISLVVGGIGVMNIMLVSVTERTREIGIRMAVGARASDVLQQFLIEAVLVCLVGGALGITLSLLIAFTLQLFLPGWEIGFSPLALLLAFLCSTVTGILFGWLPARNAARLDPVDALARE
Q: B1 was tested. Which “stoichiometry N” value did it give?
A: 2
